In publication PMC7343156, “Purification and characterization of a novel medium-chain ribitol dehydrogenase from a lichen-associated bacterium Sphingomonas sp” (PLoS ONE, 2020) one finds Km, kcat and kcat/Km data, which are given here for one protein.

Substrate in data set [1]: NC(=O)c1ccc[n+]([C@@H]2O[C@H](COP(=O)(O)OP(=O)(O)OC[C@H]3O[C@@H](n4cnc5c(N)ncnc54)[C@H](O)[C@@H]3O)[C@@H](O)[C@H]2O)c1
The data set can be described thus: purified protein. It counts as biochemical, Sphingomonas sp. PAMC 26621. To be noted: 10-160 mM D-ribitol, NAD+ 0.05-1 mM, 100 mM potassium phosphate pH 8.0, 25°C, no added metal, varied: cofactor.

Substrate in data set [2]: OC[C@@H](O)[C@@H](O)[C@@H](O)CO
Kind of data set: purified protein. The format is biochemical, Sphingomonas sp. PAMC 26621. Conditions: 10-160 mM D-ribitol, NAD+ 0.05-1 mM, 100 mM potassium phosphate pH 8.0, 25°C, no added metal.

B1: SpRDH (Sphingomonas sp. PAMC 26621) (protein)
chain: MTQKTMTAVVCHGPKDYRVEEIAHPTAGALEFVIRVTACGICASDCKCWSGAKMFWGDDPWVKAPVVPGHEFFGVVDELGEGAGEHFGVAVGDRVIAEQIVPCERCRYCRSGQYWMCEVHNIFGFQRLVADGGMAQFMRLPRTSRVHLIPAEIPDDDAVIIEPLACALHTVRRGTIGFEDVVVIAGAGPIGLMMVQAARLQTPRKLVVIDMVPERLALATTFGADVVINPATDDALAIVHGLTDGYGCDVYIEATGSPAGVVQGLNLIRRLGRFVEFSVFGSDTTVDWSIIGDRKELDVRGAHLGPYCYPIAIDLLSRGLITSNGIVTHRFPLIQWAEAIAVADSLESIKVVLSPST
notes: native enzyme purified from Sphingomonas sp; PAMC 26621 grown on D-ribitol; untagged; identified by MALDI-TOF/TOF
B1: in the data set “purified protein [1]”, the Km amounted to 0.3 ± 0.02 mM and the kcat was 29 ± 0.7 s⁻¹. For the same protein, in “purified protein [2]”, the Km turned out to be 8.5 ± 1.2 mM, the kcat was 29 ± 0.7 s⁻¹ and the kcat/Km turned out to be 3500 M⁻¹ s⁻¹.
